Consider one protein from FireProtDB (doi:10.1016/j.jmb.2003.11.050).

For the series the following is noted: Bacillus caldolyticus; pH 7; 25 °C; GdnHCl; Fluorescence; sodium cacodylate 100 mM; reversible: yes; whole UniProt chain shown.

B1: Cold shock protein CspB wild type, P41016 (protein)
chain: MQRGKVKWFNNEKGYGFIEVEGGSDVFVHFTAIQGEGFKTLEEGQEVSFEIVQGNRGPQAANVVKL
Turning to B1, the denaturant m value was determined as 1.53 kcal/mol/M, the “denaturant midpoint (higher = more stable)” value came out at 2.36 M and the unfolding free energy was 3.63 kcal/mol.
